Drawing on paper PMC4676636, “Aptamers Binding to c-Met Inhibiting Tumor Cell Migration”, this text covers binding result, IC50 and Kd for three molecules.

What is called IC50 is the concentration needed to halve the response being measured. The term Kd denotes the constant that tells how readily two partners part at equilibrium.

In data set [1] the target is T1, human c-Met-Fc (c-Met ectodomain, IgG1-Fc fusion) (Homo sapiens, UniProt P08581 25-932). Kind of data set: competition; vs 32P-CLN3-T; Dotblot: nitrocellulose filter, 37 C (competition, 30 min); BLI: DPBS, 37 C, Protein A tips, 1:1 fit; ELISA: PBS/1% BSA; flow cytometry: PBS/1% BSA, 4 C, 30 min. The note with it: protein: recombinant; tags: Fc (IgG1); chain copies: 2. Background: In an ELISA, binding on a coated surface is turned into a signal by an enzyme label.

The target of data set [2] is T1, human c-Met-Fc (c-Met ectodomain, …). Kind of data set: competition ELISA; competes with immobilized HGF; Fig 2 legend gives 72 nM; Dotblot: nitrocellulose filter, 37 C (competition, 30 min); BLI: DPBS, 37 C, Protein A tips, 1:1 fit; ELISA: PBS/1% BSA; flow cytometry: PBS/1% BSA, 4 C, 30 min. Particulars: protein: recombinant; tags: Fc (IgG1); chain copies: 2; label: 32P (dotblot).

Data set [3] has the same target. Briefly: filter binding (dotblot); Dotblot: nitrocellulose filter, 37 C (competition, 30 min); BLI: DPBS, 37 C, Protein A tips, 1:1 fit; ELISA: PBS/1% BSA; flow cytometry: PBS/1% BSA, 4 C, 30 min. The note with it: protein: recombinant; tags: Fc (IgG1); chain copies: 2; label: 32P (dotblot).
The target is the same in data set [4]. Briefly: competition; vs 32P-CLN64-T; Dotblot: nitrocellulose filter, 37 C (competition, 30 min); BLI: DPBS, 37 C, Protein A tips, 1:1 fit; ELISA: PBS/1% BSA; flow cytometry: PBS/1% BSA, 4 C, 30 min. The note with it: protein: recombinant; tags: Fc (IgG1); chain copies: 2; 3'-biotin (CLN-F-B, cells).

T1 sequence (P08581 25-932): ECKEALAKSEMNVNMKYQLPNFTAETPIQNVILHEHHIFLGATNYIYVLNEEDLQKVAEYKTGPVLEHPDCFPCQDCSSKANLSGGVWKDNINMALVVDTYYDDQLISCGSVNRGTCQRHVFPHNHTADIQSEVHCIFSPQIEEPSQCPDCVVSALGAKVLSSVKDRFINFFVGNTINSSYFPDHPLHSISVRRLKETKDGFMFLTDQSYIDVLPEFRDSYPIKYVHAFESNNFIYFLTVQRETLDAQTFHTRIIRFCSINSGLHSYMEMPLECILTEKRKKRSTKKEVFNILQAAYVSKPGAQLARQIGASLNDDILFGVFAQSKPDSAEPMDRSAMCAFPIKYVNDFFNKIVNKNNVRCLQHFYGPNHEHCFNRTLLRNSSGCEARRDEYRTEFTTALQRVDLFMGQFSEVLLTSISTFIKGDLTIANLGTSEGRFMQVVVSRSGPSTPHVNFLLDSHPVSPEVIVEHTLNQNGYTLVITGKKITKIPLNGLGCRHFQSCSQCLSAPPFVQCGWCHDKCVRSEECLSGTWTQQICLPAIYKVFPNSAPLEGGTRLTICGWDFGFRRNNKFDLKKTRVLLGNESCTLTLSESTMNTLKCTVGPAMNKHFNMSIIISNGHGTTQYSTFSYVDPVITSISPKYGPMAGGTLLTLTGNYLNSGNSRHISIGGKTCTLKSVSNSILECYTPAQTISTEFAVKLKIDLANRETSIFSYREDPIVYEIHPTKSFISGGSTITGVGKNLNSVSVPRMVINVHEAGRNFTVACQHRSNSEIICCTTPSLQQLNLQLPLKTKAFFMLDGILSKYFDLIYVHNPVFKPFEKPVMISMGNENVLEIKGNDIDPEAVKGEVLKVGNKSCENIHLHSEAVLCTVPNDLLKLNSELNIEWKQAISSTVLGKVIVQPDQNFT

B1: CLN-X (ssDNA)
DNA: GGAGGGAAAAGTTATCAGGCATGCGCTAGCCGATCGAATCCCGTAGACATTCCGATCGACGATTAGTTTTGGAGTACTCGCTCC
As for B1, the binding result in data set [1] is on record as “no binding”.

B2: CLN3-T (SL1) (ssDNA)
DNA: GAAAAGTTATCAGGCTGGATGGTAGCTCGGTCGGGGTGGGTGGGTTGGCAAGTCTGATT
Take B2: the IC50 in data set [2] was found to be 74 nM. In data set [3], the Kd is 0.1 nM.

B3: CLN-F (XNA)
DNA: GGAGGGAAAAGTTATCAGGCCGCTAGTTACCAGGTGTAGCTGACCAAGCGGATGTGTGTTGATTAGTTTTGGAGTACTCGCTCC
modifications: 2'-O-methyl purines and 2'-fluoro pyrimidines (mRfY)
As for B3, the binding result in data set [4] is “no binding”.
